Molecular target: recombinant human PD-L1 (amino acids 19-239 of NP_054862.1) expressed with a C-terminal human IgG1 Fc tag (human)
Test: SPR (Biacore 3000): 100 nM hPD-L1-hFc + 500 nM mAb on captured hPD-1-mFc, 25C

recombinant human PD-L1 (amino acids 19-239 of NP_054862.1) expressed with a C-terminal human IgG1 Fc tag (human), sequence (chain, as listed by the source limits assumed): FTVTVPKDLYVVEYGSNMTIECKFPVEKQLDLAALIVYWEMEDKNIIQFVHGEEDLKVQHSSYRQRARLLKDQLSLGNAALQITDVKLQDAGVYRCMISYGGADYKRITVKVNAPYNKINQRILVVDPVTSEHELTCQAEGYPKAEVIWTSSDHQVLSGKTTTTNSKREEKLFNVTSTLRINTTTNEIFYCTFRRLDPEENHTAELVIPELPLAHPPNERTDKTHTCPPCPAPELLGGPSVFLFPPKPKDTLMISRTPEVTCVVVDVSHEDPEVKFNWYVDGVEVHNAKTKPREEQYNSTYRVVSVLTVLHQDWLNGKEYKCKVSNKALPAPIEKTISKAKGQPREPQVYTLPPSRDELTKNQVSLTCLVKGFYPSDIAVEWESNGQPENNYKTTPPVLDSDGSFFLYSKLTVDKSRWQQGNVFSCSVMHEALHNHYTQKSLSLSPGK

% Blocking: 0%
Substance: Isotype control antibody (Table 13, Biacore assay of human Fc antibodies)
